Assay results: article PMC6582314, “Ligands Exert Biased Activity to Regulate Sigma 1 Receptor Interactions With Cationic TRPA1, TRPV1, and TRPM8 Channels” (Frontiers in Pharmacology, 2019)

Columns and labels:
Conditions in all cases: both partners purified
[1] = target: T1, TRPM8 N-terminal cytosolic region (aa 1-639), GST-tagged (mouse, UniProt Q8R4D5 1-639); assay: pull-down; TRP sequence (100 nM) covalently attached to NHS-activated Sepharose 4FF; prey 200 nM; 200 µL 50 mM Tris-HCl pH 7.5, 0.2% CHAPS, with 3 mM CaCl2; 30 min at RT, three washes; Western blot
T1 construct: transient receptor potential melastatin member 8, mouse, NP_599013, residues 1-639; also called TRPM8 N-terminus; source: E. coli BL21 (KRX), purified (GStrap FF or HaloLink Resin); not shown: GST, N-terminal, kept

[2] = target: T2, TRPA1 N-terminal cytosolic region (aa 1-721), GST-tagged (mouse, UniProt Q8BLA8 1-721); assay: as above
T2 construct: transient receptor potential ankyrin member 1, mouse, NP_808449, residues 1-721; Vector carries GST/HaloTag and a TEV site; also called TRPA1 N-terminus; TRPA1 N-terminal domain; source: E. coli BL21 (KRX), purified (GStrap FF or HaloLink Resin); not shown: GST, N-terminal, kept

[3] = target: T2, TRPA1 N-terminal cytosolic region (aa …); assay: pull-down; competition: immobilised TRP sequence with CaM or HINT1 and increasing concentrations of σ1R (up to 200 nM), 3 mM CaCl2; bound CaM or HINT1 by Western blot, relative to no σ1R

Binder	binding result [1]	binding result [2]	binding result [3]
sigma 1 receptor (σ1R), full-length murine, GST-free (natural protein, mouse, UniProt O55242 1-223, looked up, sigma 1 receptor, mouse, GenBank AF004927, coding region of the full-length protein; 223 amino acids; also called type 1 sigma receptor; source: E. coli BL21 (KRX), purified (GStrap FF or HaloLink Resin, cleaved with ProTEV protease, ion exchange); not shown: GST, N-terminal, cleaved) MPWAAGRRWAWITLILTIIAVLIQAAWLWLGTQNFVFSREEIAQLARQYAGLDHELAFSRLIVELRRLHPGHVLPDEELQWVFVNAGGWMGAMCILHASLSEYVLLFGTALGSHGHSGRYWAEISDTIISGTFHQWKEGTTKSEVFYPGETVVHGPGEATALEWGPNTWMVEYGRGVIPSTLFFALADTFFSTQDYLTLFYTLRAYARGLRLELTTYLFGQDS	binds	binds	–
histidine triad nucleotide-binding protein 1 (HINT1), murine, GST-free (natural protein, mouse, UniProt P70349 1-126, looked up, source: E. coli BL21 (KRX), purified (GStrap FF or HaloLink Resin, cleaved with ProTEV protease, ion exchange); not shown: GST, N-terminal, cleaved) MADEIAKAQVAQPGGDTIFGKIIRKEIPAKIIFEDDRCLAFHDISPQAPTHFLVIPKKHISQISVADDDDESLLGHLMIVGKKCAADLGLKRGYRMVVNEGADGGQSVYHIHLHVLGGRQMNWPPG	binds	–	binds
